Target: T1, rhACE2 (ACRO, Human ACE2/ACEH Protein, His Tag, #AC2-H52H8) (human, UniProt Q9BYF1 18-740)
T1 construct: not shown: His tag
Assay: ELISA, rhACE2 coated at 0.2 ug/well, antibody at 0.02-2.5 ug/ml, anti-human-Fc-HRP, absorbance at 450 nm

T1 sequence (Q9BYF1 18-740 limits assumed): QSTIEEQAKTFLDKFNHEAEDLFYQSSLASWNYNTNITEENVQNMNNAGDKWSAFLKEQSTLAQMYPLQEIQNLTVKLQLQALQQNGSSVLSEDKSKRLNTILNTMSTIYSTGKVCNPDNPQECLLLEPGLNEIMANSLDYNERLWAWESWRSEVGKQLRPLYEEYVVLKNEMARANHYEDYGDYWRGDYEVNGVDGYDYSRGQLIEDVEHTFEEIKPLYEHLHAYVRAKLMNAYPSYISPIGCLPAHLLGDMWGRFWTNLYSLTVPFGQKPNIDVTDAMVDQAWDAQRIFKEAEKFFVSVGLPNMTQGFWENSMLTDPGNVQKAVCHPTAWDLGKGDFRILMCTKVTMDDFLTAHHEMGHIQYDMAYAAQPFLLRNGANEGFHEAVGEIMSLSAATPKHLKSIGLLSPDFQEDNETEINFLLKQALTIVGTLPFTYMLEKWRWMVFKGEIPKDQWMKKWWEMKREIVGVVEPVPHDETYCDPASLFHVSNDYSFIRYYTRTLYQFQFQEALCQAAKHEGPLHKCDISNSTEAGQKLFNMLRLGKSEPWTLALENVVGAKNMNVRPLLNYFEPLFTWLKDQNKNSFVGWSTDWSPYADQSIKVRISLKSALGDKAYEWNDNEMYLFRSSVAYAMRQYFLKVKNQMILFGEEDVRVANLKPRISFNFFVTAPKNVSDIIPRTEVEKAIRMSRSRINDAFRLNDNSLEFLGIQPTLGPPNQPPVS

Row | Binder | binding result
1 | C11 (Fc fusion) VL: ETTLTQSPGTLSVSPGERVTLSCRASQSVSSYLAWYQQKPGQAPRLLIYGASTRATGIPDRFSGSGSGTDFTLTISRLEPEDFAVYYCQQYGISPLNFGGGTKVEIK VH: QVQLVQSGAEVKKPGSSVKVSCKASGGTFSSYAISWVRQAPGQGLEWMGGVIPIFGTANYAQKFRGRVTMTTDTSTSTAYMELRSLTSDDTAVYYCASPQGTWSTFLEWQGAFSVWGQGTTVTVSS | binds
2 | C32 (Fc fusion) VL: DIQMTQSPAIMSASPGERVTMTCSASSSIRYIYWYQQKPGSSPRLLIYDTSNVAPGVPFRFSGSGSGTSYSLTINRMEAEDAATYYCQEWSGYPYTFGGGTKVEIKR VH: QVQLVQSGAEVKKPGSSVKVSCKASGGSFSSYAISWVRQAPGQGLEWMGGIIPIFGTANYAQKFQGRVTITADESTSTAYMELSSLRSEDTAVYYCANLRGGSSHYGMDVWGQGTLVTVSS | binds
3 | C8 (Fc fusion) VL: QSALTQPASASGSPGQSVTISCTGTSSDVGGYNYVSWYQQHPGKAPKLMIYDVSKRPSGVSDRFSGSKSGNTASLTISGLQAEDGADYYCSSYRRGRTVVFGGGTKLTVL VH: QVQLQQWGGGLVQPGGSLRLSCAASGFTFSSYAMSWVRQAPGKGLEWVSAISGSGGSTYYADSVKGRFTISRDNSKNTLYLQMNSLRAEDTAVYYCAKNYFGNPRGFDYWGQGTMVTVSS | binds

Source: patent US20250270297A1 (DAEGU GYEONGBUK INSTITUTE OF SCIENCE AND TECHNOLOGY, published 2025)
